We go through 1 substance from patent publication US20110183922A1.

For the assay, the target named is rat AChEt subunit (rat) (UniProt P37136). In words: cell-based or functional assay.
Sequence of rat AChEt subunit (rat) (P37136 32-614 limits assumed): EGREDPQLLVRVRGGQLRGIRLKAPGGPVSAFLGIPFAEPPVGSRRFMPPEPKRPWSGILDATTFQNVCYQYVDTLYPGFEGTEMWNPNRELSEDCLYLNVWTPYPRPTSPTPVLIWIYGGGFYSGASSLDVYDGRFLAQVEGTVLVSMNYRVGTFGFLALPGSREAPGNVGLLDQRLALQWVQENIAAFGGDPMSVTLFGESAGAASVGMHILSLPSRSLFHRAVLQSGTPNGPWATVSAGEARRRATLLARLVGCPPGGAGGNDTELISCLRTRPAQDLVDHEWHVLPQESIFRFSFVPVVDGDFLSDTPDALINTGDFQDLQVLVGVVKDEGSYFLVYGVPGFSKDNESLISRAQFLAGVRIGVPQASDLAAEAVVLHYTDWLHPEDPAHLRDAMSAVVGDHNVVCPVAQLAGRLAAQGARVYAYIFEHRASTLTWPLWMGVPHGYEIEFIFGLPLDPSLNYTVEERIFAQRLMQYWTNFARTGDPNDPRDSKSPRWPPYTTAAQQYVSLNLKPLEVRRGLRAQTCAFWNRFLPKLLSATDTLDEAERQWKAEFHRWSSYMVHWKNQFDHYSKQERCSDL

In the case of “ColQ PRAD-GPI: PRAD encoding N-terminal domain of ColQ (Qn) linked to the C-terminal domain of the GPI-anchored AChE form”, the cell-associated AChE activity / tetramerization (velocity sedimentation, COS cells) amounted to 100 % increase.
